Assay results from patent US10919937 (Bicycle, dated 2021).
Where “and” joins values, the source holds several entries; their conditions need not be identical. Identical values can stand only once. *1 amine or outer side, *2 acyl side, *3 side chain or, on linkers, in order; H or OH if unused. Bridges are numbered along the chain shown (N, C = ends). Primed or numbered codes have the meaning given here. Where no end group is shown, it is not given here. [ ]: non-standard residue; d: D form. MSR‑C = 1-[4-[4-[4,6-bis[4-[1-(2-chloroacetyl)-4-piperidyl]piperazin-1-yl]-1,3,5-triazin-2-yl]piperazin-1-yl]-1-piperidyl]-2-chloro-ethanone, O=C(C[*:1])N1CCC(N2CCN(c3nc(N4CCN(C5CCN(C(=O)C[*:2])CC5)CC4)nc(N4CCN(C5CCN(C(=O)C[*:3])CC5)CC4)n3)CC2)CC1; MSR‑F = 1-[4-[4-[4,6-bis[4-[4-(2-chloroacetyl)piperazin-1-yl]phenyl]-1,3,5-triazin-2-yl]phenyl]piperazin-1-yl]-2-chloro-ethanone, O=C(C[*:1])N1CCN(c2ccc(-c3nc(-c4ccc(N5CCN(C(=O)C[*:2])CC5)cc4)nc(-c4ccc(N5CCN(C(=O)C[*:3])CC5)cc4)n3)cc2)CC1; MSR‑B = molecular scaffold reagent B, 2,4,6-tris[4-(bromomethyl)phenyl]-1,3,5-triazine, c1cc(-c2nc(-c3ccc(C[*:2])cc3)nc(-c3ccc(C[*:3])cc3)n2)ccc1C[*:1]; MSR‑B(3) = molecular scaffold reagent 2,4,6-tris[4-(bromomethyl)phenyl]-1,3,5-triazine, c1cc(-c2nc(-c3ccc(C[*:2])cc3)nc(-c3ccc(C[*:3])cc3)n2)ccc1C[*:1]; MSR‑G = scaffold reagent with three vinyl sulfonyl Michael acceptors (C9H15N3O6S3), O=S(=O)(CC[*:1])N1CN(S(=O)(=O)CC[*:2])CN(S(=O)(=O)CC[*:3])C1; MSR‑H = 1-[4-(bromomethyl)phenyl]-N,N-bis[[4-(bromomethyl)phenyl]methyl]methanamine, c1cc(C[*:1])ccc1CN(Cc1ccc(C[*:2])cc1)Cc1ccc(C[*:3])cc1; MSR‑B″ = 2,4,6-tris[4-(bromomethyl)phenyl]-1,3,5-triazine, c1cc(-c2nc(-c3ccc(C[*:2])cc3)nc(-c3ccc(C[*:3])cc3)n2)ccc1C[*:1]; MSR‑E = scaffold reagent with three bromomethyl groups (C27H24Br3N3O3); 1Nal = N[C@@H](Cc1cccc2ccccc12)C(=O)O; Tle = CC(C)(C)[C@H](N)C(=O)O; MSR‑D = not defined here

B1: Compound I-108 (peptide)
peptide: CTEYWVDGWVPC
modifications: also: cyclised via a tyrosine linkage to an unnamed scaffold, places not given here
notes: also called 1-108
B2: Compound I-109 (peptide)
peptide: YTECWVDGWVPY
modifications: also: cyclised via a tyrosine linkage to an unnamed scaffold, places not given here
notes: also called 1-109

The binders below were run against T1, MT1-MMP hemopexin domain (UniProt P50281 319-511) (assay: MT1-MMP direct binding fluorescence polarization (as titled), n = 2).
T1 construct: domain: hemopexin domain; also called MMP14; membrane type 1 metalloprotease
Experimental: Example 5: Dissociation Rate Constant Determination of Bicyclic Binders to MT1-MMP Direct Binding Fluorescence Polarization (Anisotropy) Assays Direct Binding Fluorescence Polarization or Anisotropy Assays are performed by titrating a constant concentration of fluorescent tracer (here, the fluoresceinated bicyclic peptide to be studied) with its binding partner (here, the MT1-MMP hemopexin domain). As the concentration of binding partner increases during the titration, the polarization signal changes in proportion to the fraction of bound and unbound material. This allows determination of […] (K_d) quantitatively. Assay data can be fit using standard ligand binding equations.
Typically, concentrations of the tracer are ideally well below the K_d of the tracer:titrant pair, and concentrations chosen are usually at ~1 nM or less. The titrant (binding partner) concentration is varied from 0.1 nM up to typically 5 μM. The range is chosen such that the maximum change in fluorescent polarization can be observed. Buffers employed are phosphate buffered saline in the presence of 0.01% Tween. Experiments were run in black 384 well low-bind/low volume plates (Corning 3820), and the fluorescent polarization signal was measured using a BMG Pherastar FS plate reader. Fluorescent tracers referred to in the text are bicyclic peptides that have been fluoresceinated using 5,6-carboxyfluorescein. Fluoresceination may be performed on the N-terminal amino group of the peptide, which is separated from the bicycle core sequence by a sarcosine spacer (usually Sar5). This can be done during Fmoc solid phase synthesis or post-synthetically (after cyclization with the molecular scaffold reagent and purification) if the N-terminal amino group is unique to the peptide. Fluoresceination can also be performed on the C-terminus, usually on a Lysine introduced as the first C-terminal residue, which is then separated from the bicycle core sequence by a sarcosine spacer (usually Sar6). Thus, N-terminal tracers can have a molecular format described as Fluo-Gly-Sar5-A(Bicycle-CoreSequence), and (BicycleCoreSequence)-A-Sar6-K (Fluo) for a C-terminally fluoresceinated construct.
For AC[dA]NE[1Nal][dA]CEDFYD[Tle]C (linker 2-8-15 via MSR‑D; not fully specified; reading uncertain, also called 1-92) [Compound I-92], the Ki was ≥ 500 nM and < 1000 nM.
AC[dA]NE[1Nal][dA]CEDFYD[Tle]C (linker 2-8-15 via MSR‑E, also called 1-93) [Compound I-93] was tested, and the Ki was < 500 nM.
In the case of AC[dA]NE[1Nal][dA]CEDFYD[Tle]C (linker 2-8-15 via MSR‑F, also called 1-94) [Compound I-94], the Ki is reported as < 500 nM.
For AC[dA]NE[1Nal][dA]CEDFYD[Tle]C (linker 2-8-15 via MSR‑G, also called 1-95) [Compound I-95], the Ki was ≥ 500 nM and < 1000 nM.
With AC[dA]NE[1Nal][dA]CEDFYD[Tle]C (linker 2-8-15 via MSR‑H, also called 1-96) [Compound I-96] the Ki was < 500 nM.
For AC[dA]NE[1Nal][dA]CEDFYD[Tle]C (linker 2-8-15 via MSR‑B, also called 1-90) [Compound I-90], the Ki was < 500 nM.
AC[dA]NE[1Nal][dA]CEDFYD[Tle]C (linker 2-8-15 via MSR‑C, also called 1-91) [Compound I-91] was tested, and the Ki was < 500 nM.

What follows are binders tested against human carbonic anhydrase IX (human, UniProt Q16790 38-414) (assay: competition fluorescence polarization, tracer SEQ ID NO: 11, n = 2).
For CTECWVDGWVPC (linker 1-4-12 via MSR‑B(3) (inferred), also called 1-98) [Compound I-98], the Ki was < 500 nM.
With B1 the Ki was < 500 nM.
With B2 the Ki was ≥ 500 nM and < 1000 nM.

Each binder was assayed against T2, EphA2 (UniProt P29317 25-534, limits assumed, biotinylated with EZ-Link Sulfo-NHS-LC-Biotin (sites not given)) (assay: SPR (Biacore), biotinylated EphA2 on streptavidin, peptide as analyte, n = 2).
T2 construct: Fc-tagged proteins are also mentioned; also called ephrin type-A receptor 2; biotinylated EphA2
T2 sequence (P29317 25-534 limits assumed): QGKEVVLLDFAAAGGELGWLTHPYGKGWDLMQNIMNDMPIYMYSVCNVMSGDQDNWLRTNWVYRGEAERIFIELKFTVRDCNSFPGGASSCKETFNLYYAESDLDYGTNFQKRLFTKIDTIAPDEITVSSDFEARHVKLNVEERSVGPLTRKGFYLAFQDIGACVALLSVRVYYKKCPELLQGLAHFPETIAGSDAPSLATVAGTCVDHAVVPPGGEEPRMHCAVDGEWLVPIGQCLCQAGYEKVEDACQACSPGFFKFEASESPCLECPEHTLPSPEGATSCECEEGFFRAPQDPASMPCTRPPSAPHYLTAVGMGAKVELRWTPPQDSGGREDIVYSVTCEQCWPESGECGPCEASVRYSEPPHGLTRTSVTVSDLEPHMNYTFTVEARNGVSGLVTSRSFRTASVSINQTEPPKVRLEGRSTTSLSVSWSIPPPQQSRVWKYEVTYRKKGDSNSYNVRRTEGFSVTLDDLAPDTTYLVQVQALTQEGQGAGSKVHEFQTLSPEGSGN
Experimental: SPR Measurements: Non-Fc fusion proteins were biotinylated with EZ-Link™ Sulfo-NHS-LC-Biotin for 1 hour in 4 mM sodium acetate, 100 mM NaCl, pH 5.4 with a 3× molar excess of biotin over protein. The degree of labelling was determined using a Fluorescence Biotin Quantification-Kit (Thermo) after dialysis of the reaction mixture into PBS. For analysis of peptide binding, a Biacore T200 10 instrument was used utilising a XanTec CMD500D chip. Streptavidin was immobilized on the chip using standard amine-coupling chemistry at 25° C. with HBS—N (10 mM HEPES, 0.15 M NaCl, pH 7.4) as the running buffer. Briefly, the carboxymethyl dextran surface was activated with a 7 min injection of a 1:1 ratio of 0.4 M 1-ethyl-3-(3-dimethylaminopropyl) carbodiimide hydrochloride (EDC)/0.1 M N-hydroxy succinimide (NHS) at a flow rate of 10 μl/min. For capture of streptavidin, the protein was diluted to 0.2 mg/ml in 10 mM sodium acetate (pH 4.5) and captured by injecting 120 μl onto the activated chip surface. Residual activated groups were blocked with a 7 min injection of 1 M ethanolamine (pH 8.5):HBS—N (1:1). Buffer was changed to PBS/0.05% Tween 20 and biotinylated EphA2 was captured to a level of 500-1500 RU using a dilution of protein to 0.2 μM in buffer. A dilution series of the peptides was prepared in this buffer with a final DMSO concentration of 0.5% with a top peptide concentration was 50 or 100 nM and 6 further 2-fold dilutions. The SPR analysis was run at 25° C. at a flow rate of […] with 60 seconds association and 900-1200 seconds dissociation. Data were corrected for DMSO excluded volume effects. All data were double-referenced for blank injections and reference surface using standard processing procedures and data processing and kinetic fitting were performed using Scrubber software, version 2.0c (BioLogic Software).
Data were fitted using simple 1:1 binding model allowing for mass transport effects where appropriate for binding of Bicycle Drug Conjugates, a Biacore 3000 instrument was used. For biotinylated proteins immobilisation levels were 1500 RU and the top concentration was 100 nM. Otherwise the method was the same as described above using either the CMD500D or a CM5 chip (GE Healthcare).
With ADVHCPWGPFWCPVNRPGCA (linker 5-12-19 via MSR‑B″) [Compound I-100] the Kd was < 500 nM.
For ADVHCPWGPFWCPVNRPGCA (linker 5-12-19 via MSR‑C; also: a note names MSR-B as the scaffold) [Compound I-101], the Kd was < 500 nM.
ADVHCPWGPFWCPVNRPGCA (linker 5-12-19 via MSR‑F; not fully specified) [Compound I-104] was tested, and the Kd was < 500 nM.
With ADVHCPWGPFWCPVNRPGCA (linker 5-12-19 via MSR‑G; not fully specified) [Compound I-105] the Kd was < 500 nM.
ADVHCPWGPFWCPVNRPGCA (linker 5-12-19 via MSR‑H; not fully specified) [Compound I-106] was tested, and the Kd was < 500 nM.
